Patent US20040146896A1, “Methods and compositions for diagnosing and treating companion animal cancer” (priority 2002, published 2004)

Experiments:
[1] = test system: Normal dog hepatocytes; assay: Cell Death ELISA apoptosis assay, normal dog hepatocytes; format: cell-based; conditions: mammalian expressed TRAIL supernatants; Fas ligand 100 ng/ml (FIG. 21B)
Protocol: (§1) 4. Cell Death Detection ELISA Plus assay for apoptosis. The assay is based on a quantitative sandwich-enzyme-immunoassay-principle using mouse monoclonal antibodies directed against DNA and histones, respectively. This allows the specific determination of mono- and oligonucleosomes in the cytoplasmatic fraction of cell lysates. Roche kit, Cat. # 1 774 425, was used for this assay. 0.1 ml of U937 or any other types of cells (2×104 ) and 0.1 ml of tissue culture supernatant or other solutions containing apoptosis inducing agents (e.g. TRAIL) were used for this assay in 48-well plate. After 24 or 48 hrs of incubation at 3 7° C., the cells were spun at 2,000 rpm for 10 minutes. Cell pellet was then resuspended in 200 ul lysis buffer and incubated for 30 minutes at room temperature. The cell lysate was then centrifuged at 2,000 rpm for 10 minutes and diluted at 1:10 with incubation buffer. 20 ul of diluted lysate was added to coated plate (MTP from kit) and 80 ul of the immunoreagent was added to each well. MTP was then covered with adhesive cover foil and incubated under gentle shaking for 2 hours at room temperature. The solution was then removed thoroughly by tapping and subsequently rinsed 3 times with 250 ul incubation buffer. 100 ul ABTS solution was added and incubated on a plate shaker at 250 rpm for 15 minutes. Readings at 405 nm and 490 nm (background) were done on ELISA reader.
3. […]

[2] = test system: U937 human tumor cells; assay: Cell Death Detection ELISA apoptosis assay, U937; format: cell-based; conditions: mammalian expressed TRAIL supernatants; commercial human TRAIL and Fas ligand 100 ng/ml (FIGS. 19B, 20B, 21B)
Protocol: as §1, with “reader. […]” for “reader.”

[3] = test system: hepatocyte; conditions: literature (Lawrence et al. 2001); cited from earlier work
[4] = test system: various tumor cell lines; conditions: literature (Walczak 1999; Wiley 1995; Pitti 1996); cited from earlier work
[5] = test system: human tumors; conditions: mice and nonhuman primates; literature (Walczak 1999; Ashkenazi 1999); cited from earlier work
[6] = test system: nontransformed, normal cells; conditions: literature (Walczak 1999; Wiley 1995; Pitti 1996); cited from earlier work
[7] = test system: non-human hepatocytes; conditions: literature (Jo et al. 2000); cited from earlier work
[8] = test system: isolated human heptocytes; conditions: literature (Jo et al. 2000); cited from earlier work

Substance: Fas ligand: Fas ligand (100 ng/ml, Upstate Biotechnology), control; well known agent which causes liver toxicity in vivo [reference compound]
- apoptosis of normal dog hepatocytes, in words [1]: very sensitive
- induction of apoptosis of U937 cells, in words [2]: sensitive

Substance: His-tagged TRAIL: His-tagged recombinant TRAIL version, Lawrence et al. 2001
- hepatocyte toxicity (apoptosis) of recombinant TRAIL versions [3]: induced substantial apoptosis

Substance: TRAIL protein: TNF-related apoptosis-inducing ligand as reported in the literature
- apoptosis in various tumor cell lines [4]: induce apoptosis
- apoptosis in human tumors after administration of TRAIL [5]: can induce apoptosis in human tumors
- cytotoxicity in normal organs or tissues [5]: no cytotoxicity
- apoptosis in nontransformed, normal cells [6]: not in nontransformed, normal cells

Substance: native form of soluble TRAIL protein: native form of soluble TRAIL protein, Lawrence et al. 2001
- hepatocyte toxicity (apoptosis) of recombinant TRAIL versions [3]: no effect

Substance: polyhistidine-tagged recombinant human TRAIL (residues 114-281): polyhistidine-tagged recombinant human TRAIL (residues 114-281), Jo et al. 2000
- apoptosis in vitro in non-human hepatocytes [7]: not in non-human hepatocytes
- apoptosis in vitro in isolated human hepatocytes [8]: induce apoptosis
